Source: the RNAGym collection of RNA variant scans (doi:10.7554/elife.80360)

B1: Hairpin Ribozyme (parent)
chain: GUCCUCUUUCACGUGCGCGUGAAAGAGAGAAGUGAACCAGAGAAACACACGUUGUGGUAUAUUACCUGGUA

Variants of: B1
Experiment: self-cleavage, relative activity (ratio to wild type); higher = more cleavage; co-transcriptional

Variant | self-cleavage
GUCCUCUUUCACGUGCGCGUGAAAGAGAGAAGUGAACCAGAUAAACACACCUUGUGGUAUAUUACCUGGUA [G42U G51C] | 0.392
GUCCUCUUUCACGUGCGCGCGAAAGAGAGAAGUGAACCAGGGAAACACACGUUGUGGUAUAUUACCUGGUA [U20C A41G] | 0.886
GUCCUCUUUCACGUGCGCGUGAGAGAGAGAAGUGAACCAGAGAAACACACCUUGUGGUAUAUUACCUGGUA [A23G G51C] | 0.91
GUCCUCUUACACGUGCGCGUGAAAGAGAGACGUGAACCAGAGAAACACACGUUGUGGUAUAUUACCUGGUA [U9A A31C] | 0.158
GUCCUCUUUCUCGUGCGCGUGAAAGAGAGUAGUGAACCAGAGAAACACACGUUGUGGUAUAUUACCUGGUA [A11U A30U] | 0.133
GUCCUCUGUCACGUGCGCGUGAAAGAGAGAAGUGAACCAGAGAAACACACGUUGAGGUAUAUUACCUGGUA [U8G U55A] | 0.193
GUCCUCUUUCACGUGCGCUUAAAAGAGAGAAGUGAACCAGAGAAACACACGUUGUGGUAUAUUACCUGGUA [G19U G21A] | 0.875
GUCCUCUUUCACGUGCGCGUGAAAGAGAGAAGUGAACCAGUGAAACACACGUUGUGGUAUAUUACAUGGUA [A41U C66A] | 0.271
GUCCUCUUUCACGUGCGCGUGAAAGAGAAAAGUGAACCAGAGAAACACACGUUGUGGUAUAUUACCGGGUA [G29A U67G] | 0.0868
GUCCUCUCUCACGUGCGCGUGAAAGAGAGAAGUGAACCAGAGAAACACACGUUGUGGUAUUUUACCUGGUA [U8C A61U] | 0.182
GUCCUCUUUCACGUGCGCGUGAAAGAGAGACGUGAACCAGAGAAACACACGUUGUGGUGUAUUACCUGGUA [A31C A59G] | 0.132
GUCAUCUUACACGUGCGCGUGAAAGAGAGAAGUGAACCAGAGAAACACACGUUGUGGUAUAUUACCUGGUA [C4A U9A] | 0.233
GUCCUCUUUCACGUGCGCGUGAAAGCGAGAAGUGAACCAAAGAAACACACGUUGUGGUAUAUUACCUGGUA [A26C G40A] | 0.295
GUCCACUUUCACGUGCGCGUGAAAGAGAGAAGUGCACCAGAGAAACACACGUUGUGGUAUAUUACCUGGUA [U5A A35C] | 0.364
GUCCUCUUUCACGUGCGCGUGACGGAGAGAAGUGAACCAGAGAAACACACGUUGUGGUAUAUUACCUGGUA [A23C A24G] | 0.85
GUCCUCUUUCACGUGCGCGUGAAAGACAGAAGUGAACCAGAGAAACACACGCUGUGGUAUAUUACCUGGUA [G27C U52C] | 0.22
GUCCUCUUUCACGUGCGCGUGAAAGAGAGAAGUGAACCAGAGAAACACUCGUUGUGCUAUAUUACCUGGUA [A49U G57C] | 0.0724
GUCCCCUUUCACGUGCGCGUGAAAGAGAGAAGUGAACCAGAGAAACGCACGUUGUGGUAUAUUACCUGGUA [U5C A47G] | 0.332
GUCCUCUUUCACGUGCGCGUGAAAGAGGGAAGUGAACCAGAGAAACACACGUUGUGGUAUAUUACCUGUUA [A28G G69U] | 0.331
GUCCUCUUUUAGGUGCGCGUGAAAGAGAGAAGUGAACCAGAGAAACACACGUUGUGGUAUAUUACCUGGUA [C10U C12G] | 0.612
GUCCUCUUUCACGUGCGCGUGAAAGAGAGAAGUGAACCAGAGAACCACACGUUGUGGGAUAUUACCUGGUA [A45C U58G] | 0.3
GUCCUCUUUCACGUGCGCGUGAAAGAGAGAAGUGAACCAGAGAAACACACGUUGUGGUAUAUUAACUAGUA [C65A G68A] | 0.378
GUCCUCUUUCACGUGCGCGUGAAAGAGAGAAGUGAACCAGAGAAACACACGUUGUGGUAUAUUACCUGAUA [G69A] | 0.407
GUCCCCUUUCACGUGCGCGUGAAAGAGAGAAGUGAACCAGCGAAACACACGUUGUGGUAUAUUACCUGGUA [U5C A41C] | 0.734
GUCCUCUUUCAAUUGCGCGUGAAAGAGAGAAGUGAACCAGAGAAACACACGUUGUGGUAUAUUACCUGGUA [C12A G13U] | 0.673
GUCCUCUUUCACGUGCGCGUGAAAGACAGAAGUGAACCAGAGAAACACACGUUCUGGUAUAUUACCUGGUA [G27C G54C] | 0.151

Variant | self-cleavage
GUCCUCUUUCACUUGCGCGUGAAAGAGAGAAGUGAACCAGAGAAACACACGUUGUGGUAUAUUACGUGGUA [G13U C66G] | 0.11
GUCCUCUUUCACGUGUGCGUGAAAGAGAGAAGUGAACCAGAGAAACACACGUUGUUGUAUAUUACCUGGUA [C16U G56U] | 0.189
GUCCUCUUUCACGUGCGCAUGAAAGAGAGAAGUGAACCAGAGAAACACACGUUGUGGUAUAUUAACUGGUA [G19A C65A] | 0.748
GUCCUCUUUCACGUGCGCGUGAAAGAGAGAAGUGAACCGGAGUAACACACGUUGUGGUAUAUUACCUGGUA [A39G A43U] | 0.141
GUCCUCUUUCACGUCCGCGUGAAAGAGAGAAGGGAACCAGAGAAACACACGUUGUGGUAUAUUACCUGGUA [G15C U33G] | 0.0645
GUCGUCUUUCACGUGCGCGUGAAAGAGAGAAGUGAACCAGAGAAACACACGUUGUGGUAUAUUACGUGGUA [C4G C66G] | 0.209
GUCCUCUUUCACGUGCGCGUGAAAGAGAAAAGUGAACCAGAGAAACAAACGUUGUGGUAUAUUACCUGGUA [G29A C48A] | 0.131
GUCCUCUUUCACGUGCGCGUGAAAUAGAGAAGUGAACCAGAGAAACGCACGUUGUGGUAUAUUACCUGGUA [G25U A47G] | 0.0793
GUCCUCUUUCACGUGCGCGUGAAAGAAAGAAGUGAACCAGAGAAACGCACGUUGUGGUAUAUUACCUGGUA [G27A A47G] | 0.129
GUCCUCUUUCACGUGCGCGUGAAAGAGAGAAGUGAACCACAGAAACACACGUUUUGGUAUAUUACCUGGUA [G40C G54U] | 0.0743
GUCCUCUUUCACGUGCGCGUGAAAGAGAGAAGUGAACCAGAGAAACACACGUAGUGUUAUAUUACCUGGUA [U53A G57U] | 0.181
GUCCUCUUUCACGAGCGCGUGAAAGAGAGAAGUGAACCAGAGAAACACACGUUGUGGCAUAUUACCUGGUA [U14A U58C] | 0.78
GUCCUCUUUCACGUGCGCGGGAAAGAGAGAAGUGAACCAGAGAAACACACGUUGUGGUGUAUUACCUGGUA [U20G A59G] | 0.167
UUCCUCUUUCACGUGCGCGUGAAAGAGAGAAGUGAACCAGAGAAACACGCGUUGUGGUAUAUUACCUGGUA [G1U A49G] | 0.234
GUCCUCUUUCACGUGCGCGUGAUAGAGAGAAGUGAAUCAGAGAAACACACGUUGUGGUAUAUUACCUGGUA [A23U C37U] | 0.594
GUCCUCUUUCACGUGCGCGUGAAAGAGAGAAGGGAACCAGAGAAUCACACGUUGUGGUAUAUUACCUGGUA [U33G A45U] | 0.0465
GUCCUCUUUCACGUGCGCGUGAAAGAGCGGAGUGAACCAGAGAAACACACGUUGUGGUAUAUUACCUGGUA [A28C A30G] | 0.136
GUUCUCUUUCACGUGCGCGUGAAAGAGAGAAGUGAACCAGAGAAACACACGAUGUGGUAUAUUACCUGGUA [C3U U52A] | 0.522
GUCCUCUUUCACGUGCGCGUGAAAGAGAGAAGUGAACUAGAGAAACACACGUUGUGGUAUAAUACCUGGUA [C38U U62A] | 0.128
GUCCUCUUUCACGUGCGCGUGAAAGAGAGAAGUGAACCAGAGCAACACACGAUGUGGUAUAUUACCUGGUA [A43C U52A] | 0.136
GUCCUCUUUCACGUGCGCGUGAAAGAGAGAAGUGAACCUGAGAAACACACGUUGUGGUAUAUUACAUGGUA [A39U C66A] | 0.121
GUCCUCUUUCACGUGCGCGUAAAAGAGAGAAGUGAACCAGAGAAACACACGUUGUGGUAUAUUACCGGGUA [G21A U67G] | 0.241
GUCCUCUUUCACGUGCGCGUGAAAGAGAGAAGUGAACCAGGCAAACACACGUUGUGGUAUAUUACCUGGUA [A41G G42C] | 0.0762
GUCCUCUUUCACGUGCCCGUGAAAGAGAGAAGUGAACCAGAGAAACACACGUUGUGGUAUAUUACCUGUUA [G17C G69U] | 0.196
UUCCUCUUUCACGUGCGCGUGAAAGAGAGAAGUGAACCAGAGAAACACACGAUGUGGUAUAUUACCUGGUA [G1U U52A] | 0.0595
GUCCUCUUUCACGUGCGCGUGAAAGAGAGAAGUGAACCAGAGAAACACACGUUGUGGUAUAUUACCCGAUA [U67C G69A] | 0.178

Variant | self-cleavage
GUCCUCUUUCAAGUGCGCGUGAAAGAGAGAAGUGAACCAGAGAAACACACGUUGUGGUUUAUUACCUGGUA [C12A A59U] | 0.176
GUCCUCUUUCACGUGCGCGUGAAAGAGAGAAGUGAACGAGACAAACACACGUUGUGGUAUAUUACCUGGUA [C38G G42C] | 0.134
GUCUUCUUUCACGUGCGCGUGAAAGAGAGAAGUGAACCAGAGAAACACACGUUGUGGUAUAUUACCUUGUA [C4U G68U] | 0.109
GUCCUCUUUCACGUGCGCGUGAAAGAGAGAAGUGAACCAAAGAAACACACGUUGUGGUAUAUUAUCUGGUA [G40A C65U] | 0.435
GUCCUCUUUCACGUGAGCUUGAAAGAGAGAAGUGAACCAGAGAAACACACGUUGUGGUAUAUUACCUGGUA [C16A G19U] | 0.862
GUCCUCUUUCACGUGCUCGUGAAAGAGAGAAGUGAACCAGAGAAACACACGUUGUUGUAUAUUACCUGGUA [G17U G56U] | 0.112
GUCCUCCUUGACGUGCGCGUGAAAGAGAGAAGUGAACCAGAGAAACACACGUUGUGGUAUAUUACCUGGUA [U7C C10G] | 0.597
GUCCUGUUUCACGUGCGCGUGAAACAGAGAAGUGAACCAGAGAAACACACGUUGUGGUAUAUUACCUGGUA [C6G G25C] | 0.744
GUCCUCUUUCACGUGCGCGUGAAAGAGAGAAGUGAACCAGAGAAACACACGUUGUGGUCUAUUAACUGGUA [A59C C65A] | 0.0683
GUCCUCUUUCACGUGCACGUGAAAGAGAGAAGUGAUCCAGAGAAACACACGUUGUGGUAUAUUACCUGGUA [G17A A36U] | 0.544
GUCCUCUUUCACGUGCGCGUGAAAGUGAGGAGUGAACCAGAGAAACACACGUUGUGGUAUAUUACCUGGUA [A26U A30G] | 0.142
GUCCUCUUUCACGUGCGCGUGAAAGCGAGAAGUGAACCAGAGAAACACACGUUGUGGUAUAAUACCUGGUA [A26C U62A] | 0.269
GUCCUCUUUCACGUGCGCGUGAAAGAGAGAAGUGAACCAGAUAAACACACGUUGUGGUUUAUUACCUGGUA [G42U A59U] | 0.151
GUCCUCUUUCACGUGCGCGUAAAAGAGAGAAGGGAACCAGAGAAACACACGUUGUGGUAUAUUACCUGGUA [G21A U33G] | 0.104
GUCCUCUUUCACGUGCGUGCGAAAGAGAGAAGUGAACCAGAGAAACACACGUUGUGGUAUAUUACCUGGUA [C18U U20C] | 1.06
GUCAUCUUUCACGUGCGCGUGAAAGAGAGAAGUGAACCAGAGAAACACACGUUGUGGUAUAUAACCUGGUA [C4A U63A] | 0.101
GUCCUCUUUCACGUGCGCGUGAUAGAGAGAAUUGAACCAGAGAAACACACGUUGUGGUAUAUUACCUGGUA [A23U G32U] | 0.19
GCCCUCUUUCACGUGCUCGUGAAAGAGAGAAGUGAACCAGAGAAACACACGUUGUGGUAUAUUACCUGGUA [U2C G17U] | 0.1
GUCCUCUUUCACGUGCGCGUGAAAGAGAGAAGUGAACCAGAGAAACACAAGUUGUGGUAUUUUACCUGGUA [C50A A61U] | 0.281
GUCCUCUUUCACGUGCGCGUGAAAGAGAGAAGUGAACCAGAGAAACACACGAUGUGGUAUCUUACCUGGUA [U52A A61C] | 0.256
GUCCUCAUUCACGUGCGCGCGAAAGAGAGAAGUGAACCAGAGAAACACACGUUGUGGUAUAUUACCUGGUA [U7A U20C] | 0.774
GUCCUCUUUCACGUGCGCGUGAAAGAGAGAAGUAAACCAGAGAAACACACGUUGUGGUAUACUACCUGGUA [G34A U62C] | 0.38
GUCCUCCUUCACGUGCGCGUGAAAGAGAGAAGUGAACCAGAGACACACACGUUGUGGUAUAUUACCUGGUA [U7C A44C] | 0.0427
GUCCUCUUUGACGUGCGCGUGAAAGAGAGAAGUGAACCAGUGAAACACACGUUGUGGUAUAUUACCUGGUA [C10G A41U] | 1.09
